Measurements taken from patent US11639389B2.

Target: Purified Fc fusion protein of Human CTLA4 (human)
Experiment: BLI (Fortebio), CTLA4-Fc immobilized by amine reactive chemistry

Substance: Anti CTLA4 IgG (BioLegend A3.B10.G1) (antibody)
- Kd: 2 nM
